Numbering of substitutions follows the chain as printed.

The chains are these.
B1: YL-G2-B (antibody, human IgG1, kappa)
heavy: EVQLQQSGPELEKPGASVKISCKASGYSFTGYKMNWVKQSNGKSLEWIGNIDPYYGGTTYNQKFKGKATLTVDKSSSTAYMQLKSLTSEDSAVYYCARYGKGNTMDYWGQGTSVTVSSASTKGPSVFPLAPSSKSTSGGTAALGCLVKDYFPEPVTVSWNSGALTSGVHTFPAVLQSSGLYSLSSVVTVPSSSLGTQTYICNVNHKPSNTKVDKRVEPKSCDKTHTCPPCPAPELVGGPSVFLLPPKPKDTLMISRTPEVTCVVVDVSHEDPEVKFNWYVDGVEVHNAKTKPPEEQYNSTLRVVSVLTVLHQDWLNGKEYKCKVSNKALPAPIEKTISKAKGQPREPQVYTLPPSREEMTKNQVSLTCLVKGFYPSDIAVEWESNGQPENNYKTTPLVLDSDGSFFLYSKLTVDKSRWQQGNVFSCSVMHEALHNHYTQKSLSLSPGK
light: DIVMTQSPSSLTVTAGEKVTMSCKSSQSLLNSGNQKNYLTWYQQRPGQPPKLLIYWASTRESGVPVRFTGSGSGTDFTLTISSVQAEDLAVYYCQNAYIYPLTFGTGTKLELKRTVAAPSVFIFPPSDEQLKSGTASVVCLLNNFYPREAKVQWKVDNALQSGNSQESVTEQDSKDSTYSLSSTLTLSKADYEKHKVYACEVTHQGLSSPVTKSFNRGEC
B2: YL-G2-C (antibody, human IgG1, kappa)
heavy: QIQLVQSGPELRKPGETVKISCKASGFPFTTDGMSWVKQAPGKGLKWMGWINTYSGVPTYADDFKGRVAFSLETSASTAYLQIKNLKNEDTATYFCARFRRGNALDNWGQGTSVTVSSASTKGPSVFPLAPSSKSTSGGTAALGCLVKDYFPEPVTVSWNSGALTSGVHTFPAVLQSSGLYSLSSVVTVPSSSLGTQTYICNVNHKPSNTKVDKRVEPKSCDKTHTCPPCPAPELVGGPSVFLLPPKPKDTLMISRTPEVTCVVVDVSHEDPEVKFNWYVDGVEVHNAKTKPPEEQYNSTLRVVSVLTVLHQDWLNGKEYKCKVSNKALPAPIEKTISKAKGQPREPQVYTLPPSREEMTKNQVSLTCLVKGFYPSDIAVEWESNGQPENNYKTTPLVLDSDGSFFLYSKLTVDKSRWQQGNVFSCSVMHEALHNHYTQKSLSLSPGK
light: B1 light with R45K, V66D, V91I, A97N, I99F, T106A, K109R
B3: YL-G2-D (antibody, human IgG1, kappa)
heavy: QLQQSGPELEKPGASVKISCKASGYSFTGYKMNWVKQSNGESLEWIGNIDPYYGDTTYTQKFKGKATFTVDTSSSTAYMQLKSLTSEDSAVYFCARYNRGNTMDYWGQGTSVTVSSASTKGPSVFPLAPSSKSTSGGTAALGCLVKDYFPEPVTVSWNSGALTSGVHTFPAVLQSSGLYSLSSVVTVPSSSLGTQTYICNVNHKPSNTKVDKRVEPKSCDKTHTCPPCPAPELVGGPSVFLLPPKPKDTLMISRTPEVTCVVVDVSHEDPEVKFNWYVDGVEVHNAKTKPPEEQYNSTLRVVSVLTVLHQDWLNGKEYKCKVSNKALPAPIEKTISKAKGQPREPQVYTLPPSREEMTKNQVSLTCLVKGFYPSDIAVEWESNGQPENNYKTTPLVLDSDGSFFLYSKLTVDKSRWQQGNVFSCSVMHEALHNHYTQKSLSLSPGK
light: B1 light with M21L, T75A, Y93F, I99F, K113R

The target of this test is recombinant huCLDN18.2-Fc (Sino Biological, P/N: 20047-H02H) (human). Kind of test: KinExA 4000 equilibrium, antibody constant, recombinant huCLDN18.2-Fc titrated.
In the case of B1, the Kd was found to be 1.7 nM.

B2: the dissociation constant (Kd) came to 3.8 nM.

For B3, the Kd was found to be 6.4 nM.

(Values after US20250277025A1.)
